Test results: paper PMC7001106, “Lipid Interactions of a Ciliary Membrane TRP Channel: Simulation and Structural Studies of Polycystin-2” (Structure(London, England:1993), 2020)

Target: the molecule itself
Experiment: cryo-EM structure; purified PC2 185-723 in UDM detergent, incubated overnight at 4°C with 18:0-20:4 PI(4,5)P2 (1:20, tetramer:lipid) or 18:1 PI(3,5)P2 (1:40); C4 symmetry imposed in the reconstruction

B1: Polycystin-2, truncated construct hPC2: Pro185 - Asp723 (domain or fragment, human, UniProt Q13563 185-723, looked up)
chain: PRVAWAERLVRGLRGLWGTRLMEESSTNREKYLKSVLRELVTYLLFLIVLCILTYGMMSSNVYYYTRMMSQLFLDTPVSKTEKTNFKTLSSMEDFWKFTEGSLLDGLYWKMQPSNQTEADNRSFIFYENLLLGVPRIRQLRVRNGSCSIPQDLRDEIKECYDVYSVSSEDRAPFGPRNGTAWIYTSEKDLNGSSHWGIIATYSGAGYYLDLSRTREETAAQVASLKKNVWLDRGTRATFIDFSVYNANINLFCVVRLLVEFPATGGVIPSWQFQPLKLIRYVTTFDFFLAACEIIFCFFIFYYVVEEILEIRIHKLHYFRSFWNCLDVVIVVLSVVAIGINIYRTSNVEVLLQFLEDQNTFPNFEHLAYWQIQFNNIAAVTVFFVWIKLFKFINFNRTMSQLSTTMSRCAKDLFGFAIMFFIIFLAYAQLAYLVFGTQVDDFSTFQECIFTQFRIILGDINFAEIEEANRVLGPIYFTTFVFFMFFILLNMFLAIINDTYSEVKSDLAQQKAEMELSDLIRKGYHKALVKLKLKKNTVD
notes: Polycystin-2 (PC2, PKD2, TRPP1), human, residues Pro185 to Asp723; For cryo-EM the protein was treated with alpha-L-fucosidase, PNGase F and TEV protease (the tag stands after a TEV site); The forward primer carries an ATG before the Pro185 codon; Homo-tetramer; also called PKD2; TRPP1; not shown: His10, C-terminal, cleaved; FLAG, C-terminal, cleaved
stoichiometry N: 4
